{
  "source": "paper PMC12477886",
  "target": "SARS-CoV-2 WA1/2020 S2 protein (stabilized prefusion spike S2 trimer) (SARS-CoV-2 (USA-WA1/2020)) (UniProt P0DTC2)",
  "experiment": "cryo-EM structure",
  "data": [
    {"substance": "SARS-CoV-2 WA1/2020 S2 protein (stabilized prefusion spike S2 trimer) (from UniProt P0DTC2) (domain or fragment)", "values": [
      {"measurement": "stoichiometry N", "result": 3}
    ]}
  ]
}
